A short description of this series: protein stability index of a GFP-peptide fusion (GPS, HEK-293T) (PSI 1-6); higher = more stable. Conditions: c terminus: a fixed tail appended.

± gives the standard deviation.
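Also: 24-mer peptide tiles fused after GFP, lentivirally expressed, FACS-sorted into six equal bins by GFP/DsRed ratio, decoded by Illumina sequencing, PSI is the read-weighted mean bin number.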

For the sequence TFWASWRAFAQIGPARSGFRLETL [MIR22HG], the protein stability index is, setting by setting: (treatment: DMSO) 2.73 ± 0.42; (treatment: MLN4924 1 uM, 8 h) 2.47 ± 0.41.
The corresponding values for TGANTKKPEDTAEDLTAKRKRMKM [FAM9B] are 5.4 ± 0.28 and 5.15 ± 0.51.
The corresponding values for TGTALRFRVLCTAPAKYTVFDAEG [MOSPD3] are 2.49 ± 0.95 and 2.54 ± 0.41.
The matching figures for TKGHPRAVSQPFRLSSSLQGSAVT [CDC14A]: 3.49 ± 0.41 and 3.54 ± 0.28.
On to TKLHDIDGVPHLILIASRDIAAGE [KMT5A], for which the protein stability index is, setting by setting: (treatment: DMSO) 2.36 ± 0.33; (treatment: MLN4924 1 uM, 8 h) 2.33 ± 0.25.
The matching figures for TLDVYNPFETREPPPAYEPPAPAP [SCAMP3]: 4.51 ± 0.18 and 4.61 ± 0.2.
The matching figures for TLPAGADFLMCYSVAEGYYSHRET [CASP6]: 2.5 ± 0.15 and 2.51 ± 0.4.
The corresponding values for TLVSRAHQLVMEGYNWCHDRNVVT [PPP2CA] are 2.27 ± 0.23 and 2.21 ± 0.13.
For TPVVLVGNKSDLKQLRQVTKEEGL [RIT1], the protein stability index by setting is: (treatment: DMSO) 4.54 ± 0.15; (treatment: MLN4924 1 uM, 8 h) 4.59 ± 0.32.
The matching figures for TQHLPRECLPENLGGYVKIDLATW [PTPN9]: 2.34 ± 0.4 and 2.31 ± 0.41.
In the case of TRHEGSFQVPVLCAVMNVVFITIL [CD69], the protein stability index reads like this: (treatment: DMSO) 2.76 ± 0.55; (treatment: MLN4924 1 uM, 8 h) 2.63 ± 0.58.
The corresponding values for TSRDRKDHMVRMHLYPADFRFDKP [ZNF511] are 2.87 ± 0.31 and 3.22 ± 0.14.
The corresponding values for TSRGGPWVGTGLAAALAGLVGLAT [CPOX] are 1.89 ± 0.93 and 2.49 ± 0.087.
The corresponding values for TSRRARASKKTAQPWVEVVLALRN [MFSD9] are 2.33 ± 0.12 and 2.58 ± 0.19.
For TSSSTVVSTQRSQDHFHVFVGDLS [TIA1], the protein stability index was found to be 3.34 ± 0.071 (treatment: DMSO) and 3.42 ± 0.23 (treatment: MLN4924 1 uM, 8 h).
Turning to TVFYIPEDHKPGTFPKALTNGSFS [DLC1], the protein stability index (treatment: DMSO) was determined as 2.86 ± 0.14 and the protein stability index (treatment: MLN4924 1 uM, 8 h) stood at 3.11 ± 0.26.
The matching figures for TVGTPDYIAPEVFMQTGYNKLCDW [STK38L]: 2.82 ± 0.16 and 2.97 ± 0.37.
The corresponding values for TYKLKCKALQEENRDLRKASVTIQ [CCDC6] are 3.64 ± 0.3 and 3.7 ± 0.21.
The matching figures for TYQVHDYLRSKLCSLYENDCIFDK [PPP2R2C]: 2.22 ± 0.26 and 2.32 ± 0.48.
For the sequence VAAGEKSILTDNPTWIIDPIDGTT [IMPA1], the protein stability index is, setting by setting: (treatment: DMSO) 3.92 ± 0.19; (treatment: MLN4924 1 uM, 8 h) 4.03 ± 0.2.
With VCGQNWGIVEAMVVCRQLGLGFAS [LOXL2], the protein stability index is, setting by setting: (treatment: DMSO) 3.33 ± 0.11; (treatment: MLN4924 1 uM, 8 h) 3.18 ± 2.
The corresponding values for VCYTACATLKGPDSHYGTKGLKKV [BTBD1] are 3.06 ± 0.42 and 3.21 ± 0.23.
The corresponding values for VDCTEIFGGNPRFLSLHRAHLGEE [ZNF263] are 3.11 ± 0.4 and 3.24 ± 0.25.
The corresponding values for VDHQGVSWYHWKGFEFSVPFTEMK [TNXB] are 2.45 ± 0.55 and 2.49 ± 0.74.
On to VDMECQTDAFLDRPPTPLFIPAKT [RSPH3], for which the protein stability index is 4.01 ± 0.1 (treatment: DMSO) and 4.19 ± 0.061 (treatment: MLN4924 1 uM, 8 h).
The matching figures for VEAVKNELRRQAPPPPPPSRGGPP [WASL]: 4.91 ± 0.29 and 4.92 ± 0.078.
The matching figures for VFGTSLTARVIIPLLKDEGFAVKA [GFOD1]: 2.7 ± 0.57 and 2.34 ± 0.25.
The corresponding values for VFPAPVVGSGGATSGKLLLEADEL [ZBTB22] are 4.93 ± 0.25 and 4.73 ± 0.22.
For VFQHGDNSFRLLFDVVVILTCSLS [MCOLN1], the protein stability index (treatment: DMSO) was determined as 3.25 ± 0.13 and the protein stability index (treatment: MLN4924 1 uM, 8 h) is 3.32 ± 0.21.
The corresponding values for VFSFDLHEPLSKERVEAFSDGVYA [TMEM175] are 3.1 ± 0.24 and 3.24 ± 0.28.
VGDEFLNCKLATRAKDFLPADIQA [SNX8]: the protein stability index (treatment: DMSO) was determined as 2.88 ± 0.26 and the protein stability index (treatment: MLN4924 1 uM, 8 h) came to 2.92 ± 0.27.
The corresponding values for VGITVLNLCALSVDRYRAVASWSR [EDNRA] are 2.86 ± 0.66 and 2.87 ± 0.6.
The matching figures for VGQQVHNLLLTYLIVTSLLLLPGL [ARL6IP1]: 3.27 ± 0.26 and 3.46 ± 0.57.
Take VGSDEEDDSGKDKKKKTKKIKEKY [HSP90AB1]: the protein stability index was 5.31 ± 0.47 (treatment: DMSO) and 5.32 ± 0.42 (treatment: MLN4924 1 uM, 8 h).
The matching figures for VHSERKLLPLVTLCDGNPRRPSPV [SCNN1D]: 3.58 ± 0.23 and 3.56 ± 0.49.
The matching figures for VHVSESSDDDEEEEENIGCEEKAK [ACBD3]: 5.55 ± 0.32 and 5.62 ± 0.12.

Source of the values: the supplement of paper PMC10567573.
